The values below are quoted from earlier work in paper PMC6396024, “Artemin and an Artemin-Derived Peptide, Artefin, Induce Neuronal Survival, and Differentiation Through Ret and NCAM” (Frontiers in Molecular Neuroscience, 2019).

The data set concerns NCAM. The settings on record: ref Paratcha et al., 2003; Nielsen et al., 2009; cited from earlier work. The text has this:
We have previously shown that the GDNF-binding site for NCAM is localized to the heel region and that gliafin, a GDNF-derived peptide covering this region, binds to NCAM ([Nielsen et al., 2009]). As the tertiary structure of ARTN is similar to that of GDNF, we speculated that the artefin motif also contains a potential binding site for NCAM. […] Whether NCAM can be an alternative receptor for other GFLs has been establish ...

B1: GDNF: glial cell line-derived neurotrophic factor (protein, UniProt P39905 78-211, looked up)
Glial cell line-derived …: SPDKQMAVLPRRERNRQAAAANPENSRGKGRRGQRGKNRGCVLTAIHLNVTDLGLGYETKEELIFRYCSGSCDAAETTYDKILKNLSRNRRLVSDKVGQACCRPIAFDDDLSFLDDNLVYHILRKHSAKRCGCI
On to B1, for which the “interaction with NCAM” value is given as “interacts directly with NCAM”.
